The results in this text go back to patent US20250206841A1 (ADEPT THERAPEUTICS, published 2025).

The chains are these.
T1: human Trop-2 expressed on cell surface (human, UniProt P09758 27-323)
T1 sequence (looked up): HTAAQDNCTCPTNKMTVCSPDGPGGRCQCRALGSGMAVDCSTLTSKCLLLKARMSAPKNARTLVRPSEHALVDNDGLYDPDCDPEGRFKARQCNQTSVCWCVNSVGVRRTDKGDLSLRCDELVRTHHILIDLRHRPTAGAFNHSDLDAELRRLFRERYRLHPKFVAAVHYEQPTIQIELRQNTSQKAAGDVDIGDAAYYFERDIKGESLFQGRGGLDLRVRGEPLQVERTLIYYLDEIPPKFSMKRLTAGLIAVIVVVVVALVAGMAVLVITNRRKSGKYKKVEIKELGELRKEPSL

T2: cynomolgus Trop-2-His protein (cynomolgus, UniProt P09758 27-274 (human entry))
T2 construct: also called cynmolgus Trop-His; Kactus Cat #TRP-CM121; not shown: His tag
T2 chain: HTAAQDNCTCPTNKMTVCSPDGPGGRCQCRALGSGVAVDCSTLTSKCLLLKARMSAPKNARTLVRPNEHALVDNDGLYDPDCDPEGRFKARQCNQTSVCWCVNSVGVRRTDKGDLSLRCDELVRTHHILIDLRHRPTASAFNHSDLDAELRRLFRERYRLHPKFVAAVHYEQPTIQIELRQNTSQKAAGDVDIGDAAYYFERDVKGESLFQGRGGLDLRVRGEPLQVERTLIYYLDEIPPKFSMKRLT

T3: human Trop-2-His protein (human, UniProt P09758 27-274)
T3 construct: extracellular domain; Assay paragraphs say only 'Trop-2-His'; also called hTrop-2; Kactus Cat #TRP-HM121; not shown: His tag
T3 sequence (looked up): T2 chain with V36M, N67S, S139G, V204I

B1: 9D7-2 (antibody, V domains shown)
VH: QSLEESGGDLVQPGASLTLTCKASGFDLNNYSILWVRQAPGKGLEWIGSIYISGGSTYYANWAKGRFAISKTSSTTVTLQMTSLTAADTATYFCARDDGTASYYLNLWGPGTLVTVSS
VL: YDMTQTPASVSEPVGGTVTIKCQASEDIYKLLAWYQQKPGQPPKLLIYAASDLESGVPSRFKGRGSGTDYTLTISDLEAADAATYYCQQAYTIGNIDNSFGGGTEVVVK
B2: 10A9-2 (antibody, V domains shown)
VH: B1 VH with S32A, I33M, S56T, Y59F, N61S, K64T, A101T
VL: B1 VL with E12A, P13A, K30S, A49G, D52N, R64S, D69E, A80D, S99A
B3: 5D4-1 (antibody, V domains shown)
VH: QQLEESGGGLVKPEGSLTLTCKGSGFDFSGTYWMWWVRQAPGKGLEWIAPIYVGSGSSTYYASWAKGRFTISSTSSTAVTLQATSLTAADTATYFCARGATNNVFMNYFNLWGPGTLVTVSS
VL: FEMTQTPSSVSEPVGGTVTIKCQASEDISSNLGWYQQKPGQPPKLLIYGASTLASGVPSRFKGSGSGTEFTLTISDLEPADAATYYCQTSYYIDDGVNGFGGGTEVVVK
B4: 5D4-2 (antibody, V domains shown)
VH: B3 VH with P50S
VL: B3 VL with P79A
B5: 1D10 (antibody, V domains shown)
VH: QEQLKESGGGLVQPGGSLTLSCKASGFDFNYYGVSWVRQAPGKGLEWIGYIYPAYHNTYYATWVNGRFTISSHNAQNTLYLQLNTLTAADTATYFCARDAGSTDYNLNLWGPGTLVTVSS
VL: DVVMTQTPASVEVAVGGTVTIKCQASEDIESYLAWYQQKPGQPPRLLIYEASKLASGVSSRFSGGGYGTDFTLTISGVECADAATYYCHQALTIGNVDNPFGGGGEVVVK
notes: Rabbit-derived clone; LEM construct: VH + rabbit IgG CH1 + human IgG1 CH2-CH3
B6: 9F7 (antibody, V domains shown)
VH: B5 VH with Y31N, A100T, L107F
VL: B5 VL with R45K, D70E, H89Q, I94V, G105S
notes: as for B5

Where a chain is given by its changes, count along the chain named.

One experiment has as its target T1, human Trop-2 expressed on cell surface. In words: cell-based or functional assay.
With B1, the “Internalization %, MDA-MB-231, 0.25 µg/ml, 2 h” value was determined as 52%; the “Internalization %, MDA-MB-231, 0.25 µg/ml, 4 h” value was determined as 63%; the “Internalization %, MDA-MB-231, 0.5 µg/ml, 2 h” value is 49%; the “Internalization %, MDA-MB-231, 0.5 µg/ml, 4 h” value is 58%. Further, the “Internalization %, MDA-MB-231, 1 µg/ml, 2 h” value came out at 51%; the “Internalization %, MDA-MB-231, 1 µg/ml, 4 h” value came to 62%; the “Internalization %, MDA-MB-231, 2 µg/ml, 2 h” value was 48%; the “Internalization %, MDA-MB-231, 2 µg/ml, 4 h” value worked out at 59%.
For the molecule B2, the “Internalization %, MDA-MB-231, 0.25 µg/ml, 2 h” value was 46%; the “Internalization %, MDA-MB-231, 0.25 µg/ml, 4 h” value was determined as 55%; the “Internalization %, MDA-MB-231, 0.5 µg/ml, 2 h” value was determined as 44%; the “Internalization %, MDA-MB-231, 0.5 µg/ml, 4 h” value was determined as 55%. In addition, the “Internalization %, MDA-MB-231, 1 µg/ml, 2 h” value worked out at 43%; the “Internalization %, MDA-MB-231, 1 µg/ml, 4 h” value turned out to be 57%; the “Internalization %, MDA-MB-231, 2 µg/ml, 2 h” value amounted to 45%; the “Internalization %, MDA-MB-231, 2 µg/ml, 4 h” value came out at 58%.
Turning to B3, the “Internalization %, MDA-MB-231, 0.25 µg/ml, 2 h” value is 58%; the “Internalization %, MDA-MB-231, 0.25 µg/ml, 4 h” value was 66%; the “Internalization %, MDA-MB-231, 0.5 µg/ml, 2 h” value is 56%; the “Internalization %, MDA-MB-231, 0.5 µg/ml, 4 h” value was 61%. The “Internalization %, MDA-MB-231, 1 µg/ml, 2 h” value worked out at 59%; the “Internalization %, MDA-MB-231, 1 µg/ml, 4 h” value stood at 64%; the “Internalization %, MDA-MB-231, 2 µg/ml, 2 h” value is 57%; the “Internalization %, MDA-MB-231, 2 µg/ml, 4 h” value was 63%.
Turning to B4, the “Internalization %, MDA-MB-231, 0.25 µg/ml, 2 h” value came to 55%; the “Internalization %, MDA-MB-231, 0.25 µg/ml, 4 h” value was found to be 61%; the “Internalization %, MDA-MB-231, 0.5 µg/ml, 2 h” value stood at 48%; the “Internalization %, MDA-MB-231, 0.5 µg/ml, 4 h” value stood at 57%. Further, the “Internalization %, MDA-MB-231, 1 µg/ml, 2 h” value worked out at 52%; the “Internalization %, MDA-MB-231, 1 µg/ml, 4 h” value came to 58%; the “Internalization %, MDA-MB-231, 2 µg/ml, 2 h” value is 57%; the “Internalization %, MDA-MB-231, 2 µg/ml, 4 h” value is 62%.
Consider B5, for which the “Internalization %, MDA-MB-231, 0.25 µg/ml, 2 h” value amounted to 46%; the “Internalization %, MDA-MB-231, 0.25 µg/ml, 4 h” value was 53%; the “Internalization %, MDA-MB-231, 0.5 µg/ml, 2 h” value amounted to 48%; the “Internalization %, MDA-MB-231, 0.5 µg/ml, 4 h” value was determined as 52%. For the same molecule, the “Internalization %, MDA-MB-231, 1 µg/ml, 2 h” value came to 41%; the “Internalization %, MDA-MB-231, 1 µg/ml, 4 h” value was found to be 51%; the “Internalization %, MDA-MB-231, 2 µg/ml, 2 h” value came to 39%; the “Internalization %, MDA-MB-231, 2 µg/ml, 4 h” value amounted to 44%.
With B6, the “Internalization %, MDA-MB-231, 0.25 µg/ml, 2 h” value was found to be 34%; the “Internalization %, MDA-MB-231, 0.25 µg/ml, 4 h” value worked out at 38%; the “Internalization %, MDA-MB-231, 0.5 µg/ml, 2 h” value was 34%; the “Internalization %, MDA-MB-231, 0.5 µg/ml, 4 h” value amounted to 46%. Further, the “Internalization %, MDA-MB-231, 1 µg/ml, 2 h” value stood at 33%; the “Internalization %, MDA-MB-231, 1 µg/ml, 4 h” value stood at 41%; the “Internalization %, MDA-MB-231, 2 µg/ml, 2 h” value turned out to be 28%; the “Internalization %, MDA-MB-231, 2 µg/ml, 4 h” value was 31%.

Another experiment shares this target. In words: flow cytometry, MDA-MB-231-GFP cells. Here is the method: (§1) Cells were then resuspended in FACS buffer (1×DPBS/1% FBS) at 10⁶/ml concentration. One hundred microliter (100 μl) of cells were aliquoted into a single well in 96 well plates. The antibodies to be tested were serially diluted at 1:3 fold starting at 15 μg/mL and were then added into each well. The antibodies were mixed with cells and the mixtures were incubated on ice for 1 hour. After washing with FACS buffer, one hundred microliter (100 μl) of 1:400 diluted PE-conjugated anti-human Fc secondary antibody (Jackson Immuno Research) was added into each well and incubated for 30 minutes on ice. After washing with FACS buffer, stained cells were resuspended at diluted 7-ADD (Biolegend, used at 1:100 dilution) and analyzed on Guava 11HT or 5HT (Luminex). Data was analyzed using Flowjo software. EC₅₀ values were calculated using GraphPad Prism. Sacitnzurnab govitecan was used as positive control. Anti-HEL.hIgG1 was used as isotype negative control. Similar assay was performed using MCF-7 cells (known to express human Trop-2).
(In flow cytometry, cells or beads pass a laser one at a time.)
The term EC50 denotes the concentration giving half of the maximal effect. Lower therefore signals an effect from little substance. The molecule B1 returned an EC50 of 0.1 nM.
For the molecule B2, the EC50 stood at 0.04 nM.
For the molecule B3, the EC50 worked out at 0.01 nM.
B4: the EC50 worked out at 0.04 nM.
In turn, B5 displayed a half-maximal effective concentration (EC50) of 0.01 nM. Compared with the last molecule, the EC50 is about 4-fold lower.
B6 showed an EC50 of 0.03 nM.

The target of a further experiment is T2, cynomolgus Trop-2-His protein. In words: BLI (Gator Prime), LEM supernatant Ab on HFC probe. As to the method:
(§2) After three times of regeneration and neutralization of HFC probe (Gator, Cat #160003), LEM transfection supernatant samples to be tested in K buffer was diluted 1:1 in K buffer and immobilized onto HFC probe. […] The association and dissociation of human or cynomolgus Trop-2-His antigen from antibody was measured on BLI machine Gator Prime. Affinity was calculated using Gator Bio analysis software. Blank control was used for reference subtraction. 1 μg/ml of Sacituzumab govitecan was used as positive control.
(§3) Table 23 below summarizes the binding affinity of exemplary anti-Trop-2 antibodies in LEM transfection supernatant samples to human and cynomolgus Trop-2 using Gator.
What is called Kd is the free concentration of one partner at which half of the binding sites on the other are occupied at equilibrium, for simple one-to-one binding. As usually defined, the koff is a measure of how fast the partners let go of each other. A word on the kon: it is the rate constant with which the complex forms. The molecule B5 had a dissociation constant (Kd) of 0.361 nM, a koff of 0.00027 s⁻¹ and a kon of 688000 M⁻¹ s⁻¹.
For the molecule B6, the Kd is 0.145 nM, the koff was approximately 0.000112 s⁻¹ and the kon came to 774000 M⁻¹ s⁻¹.

For a further experiment, the target named is T3, human Trop-2-His protein. In words: BLI (Gator Prime), LEM supernatant Ab on HFC probe. Here is the method: as §2, §3
In turn, B5 displayed a Kd of 0.53 nM, a koff of 0.00027 s⁻¹ and a kon of 518000 M⁻¹ s⁻¹.
B6 gave a Kd of 0.11 nM, a koff of 5.8e-05 s⁻¹ and a kon of 530000 M⁻¹ s⁻¹.

Another experiment addresses T1, human Trop-2 expressed on cell surface. Nature of the experiment: flow cytometry, MCF-7 cells. As to the method: as §1
For B1, the EC50 was found to be 1 nM.
On the same count and under the same terms, the figure for B2 is 1.8 nM; for B3 it is 1 nM.
In turn, B4 gave an EC50 of 0.8 nM.
Consider B5, for which the EC50 was found to be 0.9 nM.
Still for that read-out and setting: the figure for B6 is 0.3 nM.

The target in the next experiment is T3, human Trop-2-His protein. In words: BLI (Gator Plus), purified Ab on HFC probe. Here is the method: The affinity of the binding of the exemplary anti-Trop-2 antibodies of the present disclosure were determined. Assay was performed using Gator Plus according to the protocol recommended by Gator Bio Inc.. Briefly, human Trop-2-His (Kactus) was 1:4 fold serially diluted starting at 1 μg/ml. After three times of regeneration and neutralization of HFC probe, 1 μg/ml of antibody to be tested in Q buffer was immobilized onto HFC probe. […] The association and dissociation of human Trop-2-His antigen from antibody was measured on BLI machine Gator Plus. Affinity was calculated using Gator Bio analysis software. Blank control was used for reference subtraction. Sacituzumab govitecan was used as positive control.
As to B1, the Kd amounted to 2.86 nM, the koff was 0.00126 s⁻¹ and the kon worked out at 438000 M⁻¹ s⁻¹.
The like results for B2 were, in that order, 2.66 nM, 0.00089 s⁻¹ and 335000 M⁻¹ s⁻¹.
In the case of B3, the dissociation constant Kd was 0.1 nM, the koff stood at 5.1e-05 s⁻¹ and the kon was 489000 M⁻¹ s⁻¹.
The like results for B4 were, in that order, 0.12 nM, 6e-05 s⁻¹ and 487000 M⁻¹ s⁻¹.
Take B5: the Kd was determined as 0.22 nM, the koff worked out at 0.000131 s⁻¹ and the kon stood at 604000 M⁻¹ s⁻¹.
Taken in the same sequence, the figures for B6 were 0.04 nM, 2.8e-05 s⁻¹ and 634000 M⁻¹ s⁻¹.
